{"source": "paper PMC7610802", "about": "(The Journal of allergy and clinical immunology, 2019)", "binders": {"B1": {"name": "mouse IL-33 (residues 109-266) (ligand)", "chain": "SIQGTSLLTQSPASLSTYNDQSVSFVLENGCYVINVDDSGKDQEQDQVLLRYYESPCPASQSGDGVDGKKLMVNMSPIKDTDIWLHANDKDYSVELQRGDVSPPEQAFFVLHKKSSDFVSFECKNLPGTYIGVKDNQLALVEEKDESCNNIMFKLSKI"}}, "target": "T1, mouse soluble ST2 (sST2) (mouse, UniProt P14719-2 27-337, N-linked glycans (shown by PNGase F))", "T1 sequence": "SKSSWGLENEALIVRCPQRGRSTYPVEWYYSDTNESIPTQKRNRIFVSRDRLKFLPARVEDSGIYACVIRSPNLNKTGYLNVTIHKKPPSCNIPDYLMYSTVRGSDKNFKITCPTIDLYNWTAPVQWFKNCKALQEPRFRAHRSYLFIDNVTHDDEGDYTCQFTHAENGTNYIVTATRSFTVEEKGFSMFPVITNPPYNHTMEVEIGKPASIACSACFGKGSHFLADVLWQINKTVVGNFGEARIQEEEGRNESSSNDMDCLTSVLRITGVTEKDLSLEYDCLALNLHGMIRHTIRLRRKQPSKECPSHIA", "test": "ITC"}
{"binder": "B1", "values": [{"measurement": "Kd", "result": 4.59, "unit": "nM"}]}
